Usually Kd stands for the constant that tells how readily two partners part at equilibrium. A high value points to lower affinity.

The assay has as its target T1, CD6 (UniProt P30203).
T1 sequence (looked up): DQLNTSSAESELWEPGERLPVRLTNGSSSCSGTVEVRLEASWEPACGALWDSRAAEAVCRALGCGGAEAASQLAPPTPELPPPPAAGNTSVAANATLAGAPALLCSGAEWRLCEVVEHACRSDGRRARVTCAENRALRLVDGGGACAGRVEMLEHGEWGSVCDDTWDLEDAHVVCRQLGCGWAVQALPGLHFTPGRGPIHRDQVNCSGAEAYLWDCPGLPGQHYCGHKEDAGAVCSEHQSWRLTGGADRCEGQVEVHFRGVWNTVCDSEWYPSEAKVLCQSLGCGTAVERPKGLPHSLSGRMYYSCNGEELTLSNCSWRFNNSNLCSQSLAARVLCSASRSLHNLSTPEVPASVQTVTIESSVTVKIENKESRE
Kind of assay: binding assay of FIG. 7 on CAR Tregs; method not described.

B1: CD6 CAR (representative CD6 CAR, expressed on Treg) (protein, part only; not given: hinge, transmembrane and signalling domains, part only)
scFv, part: EVQLVESGGGLVKPGGSLKLSCAASGFKFSRYAMSWVRQAPGKRLEWVATISSGGSYIYYPDSVKGRFTISRDNVKNTLYLQMSSLRSEDTAMYYCARRDYDLDYFDSWGQGTLVTVSSGSTSGGGSGGGSGGGGSSDIQMTQSPSSLSASVGDRVTITCKASRDIRSYLTWYQQKPGKAPKTLIYYATSLADGVPSRFSGSGSGQDYSLTISSLESDDTATYYCLQHGESPFTFGSGTKLEIKRA
B1 yielded a Kd of 50 nM.

Values taken from patent US20230076643A1.
